Data as given in article PMC8472264.

Molecular target: ArtB (untagged receptor-binding subunit of S. Typhimurium DT104 ArtAB) (Salmonella enterica Typhimurium DT104)
Assay: SDS-PAGE of unboiled samples

In the case of “ArtB (untagged receptor-binding subunit of S. Typhimurium DT104 ArtAB) (natural protein)”, the stoichiometry N is reported as 5.
